Values belong to the binder of their own block, whether it stands above or below them.
What was measured:
[1] = molecular target: T1, C3b (proteolytic fragment of complement component C3) (human, UniProt P01024 749-1663; P01024 749-1663); experiment: BLI
iC3b [2] = molecular target: iC3b (human); experiment: BLI
[3] = molecular target: native complement component C3 (human); experiment: SPR
[4] = molecular target: T1, C3b (proteolytic fragment of complement …); experiment: SPR
C3 methylamine = C3 methylamine (human, treated with methylamine); experiment: SPR
C3 methylamine (human, treated with methylamine), sequence (chain, as listed by the source, chain 1 of 2): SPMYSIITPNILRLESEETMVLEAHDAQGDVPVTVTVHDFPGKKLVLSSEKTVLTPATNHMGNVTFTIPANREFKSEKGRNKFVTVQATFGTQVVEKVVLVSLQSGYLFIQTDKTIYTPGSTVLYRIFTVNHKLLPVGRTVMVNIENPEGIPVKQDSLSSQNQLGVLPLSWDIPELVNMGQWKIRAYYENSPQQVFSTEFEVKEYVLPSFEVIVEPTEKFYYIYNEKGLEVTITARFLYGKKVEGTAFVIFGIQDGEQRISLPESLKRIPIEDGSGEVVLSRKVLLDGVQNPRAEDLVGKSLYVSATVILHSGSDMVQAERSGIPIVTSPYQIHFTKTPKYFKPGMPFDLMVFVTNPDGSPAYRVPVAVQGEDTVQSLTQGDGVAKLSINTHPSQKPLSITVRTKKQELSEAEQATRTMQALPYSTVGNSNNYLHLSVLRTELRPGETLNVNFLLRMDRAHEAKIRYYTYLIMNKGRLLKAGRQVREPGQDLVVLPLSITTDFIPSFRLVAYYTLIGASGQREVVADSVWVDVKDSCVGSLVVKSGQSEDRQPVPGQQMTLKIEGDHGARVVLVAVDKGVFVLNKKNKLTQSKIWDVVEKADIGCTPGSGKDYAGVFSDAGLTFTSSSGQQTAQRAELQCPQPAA
C3 methylamine (human, treated with methylamine), sequence (chain, as listed by the source, chain 2 of 2): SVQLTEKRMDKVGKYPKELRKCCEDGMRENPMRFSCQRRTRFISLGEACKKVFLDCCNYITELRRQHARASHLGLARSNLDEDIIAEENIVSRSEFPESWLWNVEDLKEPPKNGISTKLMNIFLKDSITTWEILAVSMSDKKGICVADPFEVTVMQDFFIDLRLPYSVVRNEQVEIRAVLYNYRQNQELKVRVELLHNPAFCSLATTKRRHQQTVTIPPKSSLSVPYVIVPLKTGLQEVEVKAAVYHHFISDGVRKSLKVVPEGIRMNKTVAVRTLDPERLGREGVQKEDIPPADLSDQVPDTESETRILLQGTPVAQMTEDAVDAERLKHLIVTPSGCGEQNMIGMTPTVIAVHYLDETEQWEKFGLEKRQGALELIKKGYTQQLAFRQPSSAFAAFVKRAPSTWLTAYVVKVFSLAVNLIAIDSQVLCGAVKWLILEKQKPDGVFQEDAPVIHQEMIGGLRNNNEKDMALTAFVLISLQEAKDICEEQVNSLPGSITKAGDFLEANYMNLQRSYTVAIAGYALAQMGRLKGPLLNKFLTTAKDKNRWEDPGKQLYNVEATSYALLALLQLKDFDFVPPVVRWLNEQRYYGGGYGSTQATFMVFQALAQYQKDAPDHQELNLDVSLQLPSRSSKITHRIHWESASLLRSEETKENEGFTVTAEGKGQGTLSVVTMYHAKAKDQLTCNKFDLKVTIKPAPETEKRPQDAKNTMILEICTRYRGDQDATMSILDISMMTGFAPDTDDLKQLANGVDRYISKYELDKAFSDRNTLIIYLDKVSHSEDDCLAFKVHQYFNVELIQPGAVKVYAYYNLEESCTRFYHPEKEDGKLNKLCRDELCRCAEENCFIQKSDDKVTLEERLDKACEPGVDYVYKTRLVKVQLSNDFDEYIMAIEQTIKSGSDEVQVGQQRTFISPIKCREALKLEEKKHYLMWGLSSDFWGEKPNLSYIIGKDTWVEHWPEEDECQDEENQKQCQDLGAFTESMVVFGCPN

[5] = molecular target: T1, C3b (proteolytic fragment of complement …); experiment: BLI; remark: listed apart in the source
iC3b [6] = molecular target: iC3b (human); experiment: BLI; remark: listed apart in the source

T1 sequence (P01024 23-667, chain 1 of 2): as the sequence (chain, as listed by the source, chain 1 of 2) above
T1 sequence (P01024 749-1663, chain 2 of 2): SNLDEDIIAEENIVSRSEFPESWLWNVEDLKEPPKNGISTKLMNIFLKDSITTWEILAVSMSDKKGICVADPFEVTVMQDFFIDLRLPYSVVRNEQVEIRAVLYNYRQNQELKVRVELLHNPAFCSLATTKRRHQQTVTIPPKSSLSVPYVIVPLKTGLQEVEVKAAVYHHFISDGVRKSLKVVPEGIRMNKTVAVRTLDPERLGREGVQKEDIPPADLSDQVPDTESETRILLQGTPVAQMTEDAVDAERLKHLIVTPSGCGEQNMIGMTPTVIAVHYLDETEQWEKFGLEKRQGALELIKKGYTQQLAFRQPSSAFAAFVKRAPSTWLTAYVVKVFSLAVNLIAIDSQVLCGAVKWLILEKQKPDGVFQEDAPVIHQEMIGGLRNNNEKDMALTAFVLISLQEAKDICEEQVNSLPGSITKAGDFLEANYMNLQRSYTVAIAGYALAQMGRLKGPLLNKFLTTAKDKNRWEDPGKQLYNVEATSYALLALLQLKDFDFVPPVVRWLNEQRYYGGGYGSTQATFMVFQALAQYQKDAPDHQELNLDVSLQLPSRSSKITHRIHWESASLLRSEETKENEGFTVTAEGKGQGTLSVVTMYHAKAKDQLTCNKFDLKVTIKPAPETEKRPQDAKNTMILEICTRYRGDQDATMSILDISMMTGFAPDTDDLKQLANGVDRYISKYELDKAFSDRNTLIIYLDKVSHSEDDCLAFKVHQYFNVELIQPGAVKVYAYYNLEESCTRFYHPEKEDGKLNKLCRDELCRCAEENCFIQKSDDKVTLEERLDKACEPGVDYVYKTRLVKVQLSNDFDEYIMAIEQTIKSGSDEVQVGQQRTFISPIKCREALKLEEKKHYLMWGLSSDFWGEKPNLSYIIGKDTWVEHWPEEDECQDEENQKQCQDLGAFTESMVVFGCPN
iC3b (human), sequence (chain, as listed by the source, chain 1 of 3): as the sequence (chain, as listed by the source, chain 1 of 2) above
iC3b (human), sequence (chain, as listed by the source, chain 2 of 3): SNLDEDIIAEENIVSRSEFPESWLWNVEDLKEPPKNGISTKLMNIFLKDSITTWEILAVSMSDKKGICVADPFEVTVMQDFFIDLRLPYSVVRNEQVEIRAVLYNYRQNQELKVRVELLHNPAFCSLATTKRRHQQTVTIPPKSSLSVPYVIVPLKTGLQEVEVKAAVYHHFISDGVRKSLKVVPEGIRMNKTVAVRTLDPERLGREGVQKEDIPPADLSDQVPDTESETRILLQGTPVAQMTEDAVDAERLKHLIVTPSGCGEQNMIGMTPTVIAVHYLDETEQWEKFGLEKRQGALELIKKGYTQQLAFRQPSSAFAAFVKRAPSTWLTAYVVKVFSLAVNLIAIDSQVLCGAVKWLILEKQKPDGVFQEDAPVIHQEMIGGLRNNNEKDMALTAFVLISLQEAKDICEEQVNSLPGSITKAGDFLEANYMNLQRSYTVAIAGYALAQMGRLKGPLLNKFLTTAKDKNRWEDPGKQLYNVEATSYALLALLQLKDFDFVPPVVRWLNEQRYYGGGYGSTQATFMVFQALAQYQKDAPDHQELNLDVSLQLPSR
iC3b (human), sequence (chain, as listed by the source, chain 3 of 3): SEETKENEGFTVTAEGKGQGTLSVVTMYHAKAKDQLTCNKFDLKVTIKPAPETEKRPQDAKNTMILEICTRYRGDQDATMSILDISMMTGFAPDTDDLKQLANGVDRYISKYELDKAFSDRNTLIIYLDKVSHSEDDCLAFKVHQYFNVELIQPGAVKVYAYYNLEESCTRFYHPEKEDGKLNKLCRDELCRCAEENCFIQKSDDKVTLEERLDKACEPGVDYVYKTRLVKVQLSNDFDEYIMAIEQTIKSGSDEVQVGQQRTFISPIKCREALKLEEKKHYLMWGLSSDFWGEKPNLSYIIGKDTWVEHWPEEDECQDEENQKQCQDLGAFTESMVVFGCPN
native complement component C3 (human), sequence (chain, as listed by the source, chain 1 of 2): as the sequence (chain, as listed by the source, chain 1 of 2) above
native complement component C3 (human), sequence (chain, as listed by the source, chain 2 of 2): as the sequence (chain, as listed by the source, chain 2 of 2) above

Kd [1]: 7.1 nM
Kd (iC3b [2]): 8.9 nM
B1: EWEnH fusion protein (EWE fused to FH CCP2-4) (other)
chain: EWEQVQLVETGGGLVQAGGSLRLSCAASGSIFSINAMGWFRQAPGKEREFVATINRSGGRTYYADSVKGRFTISRDNGKNMVYLQMHSLKPEDTAIYYCAAGTGWSPQTDNEYNYWGQGTQVTVSSRPCGHPGDTPFGTFTLTGGNVFEYGVKAVYTCNEGYQLLGEINYRECDTDGWTNDIPICEVVKCLPVTAPENGKIVSSAMEPDREYHFGQAVRFVCNSGYKIEGDEEMHCSDDGFWSKEKPKCVEISCKSPDVINGSPISQKIIYKENERFQYKCNMGYEYSERGDAVCTESGWRPLPSCEE

koff [3]: 0.000105 s⁻¹
koff [4]: 8.6e-05 s⁻¹
koff (C3 methylamine): 7.6e-05 s⁻¹
B2: avi-tagged, biotinylated EWE nanobody (VHH)
VHH: QVQLVETGGGLVQAGGSLRLSCAASGSIFSINAMGWFRQAPGKEREFVATINRSGGRTYYADSVKGRFTISRDNGKNMVYLQMHSLKPEDTAIYYCAAGTGWSPQTDNEYNYWGQGTQVTVSS
modifications: biotin

koff [5]: 0.00037 s⁻¹
koff (iC3b [6]): 0.00026 s⁻¹
B3: EWE-hC3Nb1 nanobody, bacterially expressed (VHH)
VHH: B2 VHH

Source: article PMC9352930 (2022)
